Stoichiometry N data for one substance are collected here from publication doi:10.1101/2022.09.01.504486.

The assay addresses PfCelTOS. The assay is described as follows: cross-linking.

PfCelTOS (natural protein) gave a stoichiometry N of 2.
